Measured values: patent US20110275559A1, “Long-Acting Y2 and/or Y4 Receptor Agonists” (Novo Nordisk A/S, priority 2008, published 2011)
Like-named read-outs stand apart in the source and are kept apart here. *1 amine or outer side, *2 acyl side, *3 side chain or, on linkers, in order; H or OH if unused. Where a SMILES comes first, the peptide text is derived from it. Where no end group is shown, it is not given here. Side-chain parts run from the residue outwards. The star is where a group is joined. C20 diacid = O=C(O)CCCCCCCCCCCCCCCCCCC(=O)*; C18 diacid = O=C(O)CCCCCCCCCCCCCCCCC(=O)*; γGlu = O=C(O)[C@H](CCC(=O)[*:2])N[*:1]; Trx = NC[C@H]1CC[C@H](C(=O)O)CC1; AEEA = NCCOCCOCC(=O)O

Tests used:
[1] = in vivo; settings: Göttingen, minipig, iv, 50 nmol/kg
Procedure, shortened: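 Catheterised mini-pigs received compound i.v. at 10 nmol/kg in pH 4.0 phosphate/NaCl/tween vehicle, or alternatively i.v. or s.c. at 1–30 nmol/kg in pH 8.0 K2HPO4/tween. Stabilised plasma was sampled up to 13 days and assayed by LC-MS (LLOQ 2 nM). Half-life came from non-compartmental analysis of individual animal profiles.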

[2] = molecular target: T1, Y2 receptor (Homo sapiens, UniProt P49146); test: Y2 receptor ACTOne based FLIPR assay (cAMP biosensor); assay type: cell-based
T1 construct: host or cells: ACTOne HEK-293 cells
T1 sequence (P49146 1-381): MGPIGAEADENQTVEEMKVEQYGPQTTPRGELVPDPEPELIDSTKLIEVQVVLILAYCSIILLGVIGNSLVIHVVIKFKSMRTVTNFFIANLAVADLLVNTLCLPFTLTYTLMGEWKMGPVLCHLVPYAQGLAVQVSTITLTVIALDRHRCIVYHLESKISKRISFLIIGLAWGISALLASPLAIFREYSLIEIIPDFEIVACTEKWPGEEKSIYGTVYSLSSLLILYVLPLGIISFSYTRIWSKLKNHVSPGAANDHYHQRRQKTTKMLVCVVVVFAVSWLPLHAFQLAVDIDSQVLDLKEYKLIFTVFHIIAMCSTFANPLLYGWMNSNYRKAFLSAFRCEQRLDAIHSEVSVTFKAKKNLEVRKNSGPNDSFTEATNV
Excerpt: ACTOne™ is an easily scaleable cAMP biosensor HTS platform for measurement of Gs and Gi coupled 7™ receptor signalling from BD Biosciences (San Jose, Calif.). The cells express a biosensor developed around a modified rat olfactory cyclic nucleotide gated (CNG) calcium channel—a fairly non-discriminatory ion channel that responds to cAMP and cGMP. The CNG has been engineered to be cAMP selective and thus function as a cAMP responsive biosensor that signals through calcium or membrane potential responsive dyes. Y2 or Y4 receptor expressing ACTOne HEK-293 cells are obtained from BD Biosciences. The cells are loaded with a calcium responsive dye that only distributes in the cytoplasm. Probenecid, an inhibitor of the organic anion transporter is added to prevent the dye from leaving the cell. A phosphodiesterase inhibitor is added to prevent formatted cAMP from being degraded. Isoproterenol (an β1/β2 agonist) is added to activate the adenylate cyclase. When an Y2 or Y4 receptor agonist is added, the adenylate cyclase is inactivated. The decreased calcium concentration in the cytoplasm is then detected as an increase in fluorescence. Together with the test substance, Isoproterenol at a concentration matching EC80, is added to all wells. • The cells are plated out in Greiner 384-well plates. […] The plates are covered with tinfoil to avoid light (the dye can be excited by the daylight, which results in higher baseline and variation). • The FLIPR (FLIPRtetra from Molecular Devices, CA, USA) adds 1 μl sample and 1 μl isoproterenol (0.05 μM final concentration) at the same time. • The fluorescence signal from the wells is measured 330 seconds after sample addition on the FLIPR.

[3] = molecular target: T2, Y2 receptor (UniProt P49146 1-381, limits assumed); test: cell-based or functional assay
T2 sequence (looked up): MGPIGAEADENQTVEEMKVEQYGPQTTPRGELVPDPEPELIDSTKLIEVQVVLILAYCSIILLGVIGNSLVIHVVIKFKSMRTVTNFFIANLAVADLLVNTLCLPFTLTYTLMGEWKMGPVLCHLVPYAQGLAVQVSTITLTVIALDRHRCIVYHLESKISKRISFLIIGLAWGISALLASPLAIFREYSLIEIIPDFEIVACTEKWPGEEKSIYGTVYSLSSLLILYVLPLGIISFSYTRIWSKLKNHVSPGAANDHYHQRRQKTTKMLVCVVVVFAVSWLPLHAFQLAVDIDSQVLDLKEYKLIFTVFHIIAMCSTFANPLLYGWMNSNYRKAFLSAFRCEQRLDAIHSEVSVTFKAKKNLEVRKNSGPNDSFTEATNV

[4] = molecular target: Y4 receptor (UniProt P50391 1-375, limits assumed); test: cell-based or functional assay
Chain of Y4 receptor (P50391 whole entry): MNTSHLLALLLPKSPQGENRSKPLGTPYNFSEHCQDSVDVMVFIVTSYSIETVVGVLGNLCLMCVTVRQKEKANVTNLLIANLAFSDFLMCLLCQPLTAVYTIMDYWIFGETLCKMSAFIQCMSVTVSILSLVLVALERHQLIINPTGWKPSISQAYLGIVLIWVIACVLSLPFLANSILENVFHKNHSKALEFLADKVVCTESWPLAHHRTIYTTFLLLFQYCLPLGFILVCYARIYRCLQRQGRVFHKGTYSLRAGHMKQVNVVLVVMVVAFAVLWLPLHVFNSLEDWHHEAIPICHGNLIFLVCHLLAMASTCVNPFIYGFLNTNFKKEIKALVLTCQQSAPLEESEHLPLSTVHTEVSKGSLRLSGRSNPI

Molecule	half-life [1]	EC50 ([2]; Table 2, PP analogues, ACTOne HEK-293 cells, read-out: Y2 cAMP EC50)	EC50 [2]	Y2 cAMP EC50 [3]	Y4 cAMP EC50 [4]
PLEPVYPGDNATPEQLAQYAADLRRYINLLTRPRY-NH2 (C-terminus assumed) [SEQ ID NO: 73, [Leu17,Leu30]hPP2-36, reference compound]	33 min	> 1 µM			
CC[C@H](C)[C@H](NC(=O)[C@H](Cc1ccc(O)cc1)NC(=O)[C@H](CCCNC(=N)N)NC(=O)[C@H](CCCNC(=N)N)NC(=O)[C@H](CC(C)C)NC(=O)[C@H](CC(=O)O)NC(=O)[C@H](C)NC(=O)[C@H](C)NC(=O)[C@H](Cc1ccc(O)cc1)NC(=O)[C@H](CCC(N)=O)NC(=O)[C@H](C)NC(=O)[C@H](CC(C)C)NC(=O)[C@H](CCC(N)=O)NC(=O)[C@H](CCC(=O)O)NC(=O)[C@@H]1CCCN1C(=O)[C@H](CCCCNC(=O)COCCOCCNC(=O)COCCOCCNC(=O)CC[C@H](NC(=O)[C@H]1CC[C@H](CNC(=O)CCCCCCCCCCCCCCCCCCC(=O)O)CC1)C(=O)O)NC(=O)[C@H](C)NC(=O)[C@H](CC(N)=O)NC(=O)[C@H](CC(=O)O)NC(=O)CNC(=O)[C@@H]1CCCN1C(=O)[C@H](Cc1ccc(O)cc1)NC(=O)[C@@H](NC(=O)[C@@H]1CCCN1C(=O)[C@H](CCC(=O)O)NC(=O)[C@H](CC(C)C)NC(=O)[C@@H]1CCCN1C(=O)[C@H](C)N)C(C)C)C(=O)N[C@@H](CCC(N)=O)C(=O)N[C@@H](CC(C)C)C(=O)N[C@@H](CC(C)C)C(=O)N[C@H](C(=O)N[C@@H](CCCNC(=N)N)C(=O)N1CCC[C@H]1C(=O)N[C@@H](CCCNC(=N)N)C(=O)N[C@@H](Cc1ccc(O)cc1)C(N)=O)[C@@H](C)O [SEQ ID NO: 18, N-epsilon13-[2-(2-{2-[2-(2-{2-[(S)-4-Carboxy-4-({trans-4-[(19-carboxynonadecanoylamino)methyl]cyclohexanecarbonyl}amino)butyrylamino]-ethoxy}ethoxy)acetylamino]ethoxy}ethoxy)acetyl][Lys13,Leu17,Gln29,Leu30]hPP(1-36)] (H-APLEPVYPGDNAK([AEEA-AEEA-γGlu-Trx-C20 diacid])PEQLAQYAADLRRYIQLLTRPRY-NH2)			> 1 µM		
APLEPVYPGNDAK([AEEA-AEEA-γGlu-Trx-C20 diacid])PEQLAQYAADLRRYINLVTRPRY (ends and bridges not checked)				0.092 µM	0.018 µM
PLEPVYPGDNATPEQLAQYAADLRRYINLLTRPK([AEEA-AEEA-γGlu-C18 diacid])Y (ends and bridges not checked)				> 1 µM	> 1 µM
PLEPVYPGDNATPEQLAQYAADLRK([AEEA-AEEA-γGlu-Trx-C20 diacid])YINLLTRPRY (ends and bridges not checked)				> 1 µM	0.007 µM
APLEPVYPGDNAK([AEEA-AEEA-γGlu-Trx-C20 diacid])PEQLAQYAADLRRYVNLLTRQRY (ends and bridges not checked)				0.063 µM	0.065 µM
APLEPVYPGDNATPEQLAQYAADLRRYINLLTRPRY (not fully specified (N-terminus); printed as N-alfa-[2-(2-{2-[2-(2-{2-[(S)-4-Carboxy-4-({trans-4-[(19-carboxynonadecanoylamino)methyl]cyclohexanecarbonyl}amino)butyrylamino]-ethoxy}ethoxy)acetylamino]ethoxy}ethoxy)acetyl][Leu17,Leu30]hPP1-36; ends and bridges not checked)				> 1 µM	0.0032 µM
PLEPVYPGDNATPEQLAQYAADLRRYINLLTK([AEEA-AEEA-γGlu-Trx-C20 diacid])PRY (ends and bridges not checked)				> 1 µM	> 1 µM
PLEPVYPGDNATPEQLK([AEEA-AEEA-γGlu-Trx-C20 diacid])QYAADLRRYINLLTRPRY (ends and bridges not checked)				> 1 µM	0.0008 µM
APLEPVYPGDNAK([AEEA-AEEA-γGlu-Trx-C20 diacid])PEQLAQYAADLRRYIQLLTRPRY (ends and bridges not checked)				> 1 µM	0.13 µM
PLEPVYPGDNATPEQLAQYAADLRRYIK([AEEA-AEEA-γGlu-Trx-C20 diacid])LLTRPRY (ends and bridges not checked)				> 1 µM	> 0.89 µM
APLEPVYPGDNAK([AEEA-AEEA-γGlu-Trx-C20 diacid])PEQLAQYAADLRRYINLLTRQRY (ends and bridges not checked)				0.054 µM	0.018 µM
PLEPVYPGDNATPEQLAQYAADLRK([AEEA-AEEA-γGlu-C18 diacid])YINLLTRPRY (ends and bridges not checked)				> 1 µM	0.005 µM
PLEPVYPGDK([AEEA-AEEA-γGlu-Trx-C20 diacid])ATPEQLAQYAADLRRYINLLTRPRY (ends and bridges not checked)				> 1 µM	0.002 µM
APLEPVYPGDNAK([AEEA-AEEA-γGlu-Trx-C20 diacid])PEQLAQYAADLRRYLNVLTRQRY (ends and bridges not checked)				0.073 µM	0.007 µM
PLEPVYPGDNATPEQLK([AEEA-AEEA-γGlu-C18 diacid])QYAADLRRYINLLTRPRY (ends and bridges not checked)				> 1 µM	0.0004 µM
PLEPVYPGDNATPEQLAQYAADLRRYINLLTK([AEEA-AEEA-γGlu-C18 diacid])PRY (ends and bridges not checked)				> 1 µM	> 1 µM
PLEPVYPGDNATPEQLAQYAADLRRYINLLTRPRY (ends and bridges not checked) [[Leu17,Leu30]hPP2-36]				> 1 µM	0.0009 µM
APLEPVYPGDNAK([AEEA-AEEA-γGlu-Trx-C20 diacid])PEQLAQYAADLRRYINVLTRQRY (ends and bridges not checked)				0.13 µM	0.007 µM
PLEPVYPGDK([AEEA-AEEA-γGlu-C18 diacid])ATPEQLAQYAADLRRYINLLTRPRY (ends and bridges not checked)				> 1 µM	0.001 µM
